In the supplement of paper PMC11246515:
± gives the standard deviation of the averaged measurements.

Assay: total protein half-life in vivo (active degradation + dilution); higher = more stable protein
[1] = E. coli NCM3722 delta-clpP delta-lon delta-hslV, growth: N-lim chemostat, doubling time 6 h
[2] = E. coli NCM3722 delta-clpP, growth: N-lim chemostat, doubling time 6 h
[3] = E. coli NCM3722 delta-hslV, growth: N-lim chemostat, doubling time 6 h
[4] = E. coli NCM3722 delta-lon, growth: N-lim chemostat, doubling time 6 h
[5] = E. coli NCM3722 delta-smpB, growth: N-lim chemostat, doubling time 6 h
[6] = wild type E. coli NCM3722, growth: C-lim chemostat, doubling time 3 h
[7] = wild type E. coli NCM3722, growth: C-lim chemostat, doubling time 6 h
[8] = wild type E. coli NCM3722, growth: C-lim chemostat, doubling time 12 h
[9] = wild type E. coli NCM3722, growth: N-lim chemostat, doubling time 6 h
[10] = wild type E. coli NCM3722, growth: N-lim chemostat, doubling time 12 h
[11] = wild type E. coli NCM3722, growth: P-lim chemostat, doubling time 6 h
[12] = wild type E. coli NCM3722, growth: P-lim chemostat, doubling time 12 h

Sequence | total protein half-life in vivo [1] [h] | total protein half-life in vivo [2] [h] | total protein half-life in vivo [3] [h] | total protein half-life in vivo [4] [h] | total protein half-life in vivo [5] [h] | total protein half-life in vivo [6] [h] | total protein half-life in vivo [7] [h] | total protein half-life in vivo [8] [h] | total protein half-life in vivo [9] [h] | total protein half-life in vivo [10] [h] | total protein half-life in vivo [11] [h] | total protein half-life in vivo [12] [h]
MTDLIQRPRRLRKSPALRAMFEETTLSLNDLVLPIFVEEEIDDYKAVEAMPGVMRIPEKHLAREIERIANAGIRSVMTFGISHHTDETGSDAWREDGLVARMSRICKQTVPEMIVMSDTCFCEYTSHGHCGVLCEHGVDNDATLENLGKQAVVAAAAGADFIAPSAAMDGQVQAIRQALDAAGFKDTAIMSYSTKFASSFYGPFREAAGSALKGDRKSYQMNPMNRREAIRESLLDEAQGADCLMVKPAGAYLDIVRELRERTELPIGAYQVSGEYAMIKFAALAGAIDEEKVVLESLGSIKRAGADLIFSYFALDLAEKKILR [P0ACB2] | 5.37 ± 0.27 | 5.78 ± 1.1 | 4.92 ± 0.25 | 5.46 ± 0.23 | 4.71 ± 0.18 | 2.99 ± 0.082 | 5.43 ± 0.14 | 9.8 ± 1.4 | 5.01 ± 0.34 | 8.03 ± 0.4 | 5.96 ± 0.23 | 11.9 ± 0.21
MTDLTAQEPAWQTRDHLDDPVIGELRNRFGPDAFTVQATRTGVPVVWIKREQLLEVGDFLKKLPKPYVMLFDLHGMDERLRTHREGLPAADFSVFYHLISIDRNRDIMLKVALAENDLHVPTFTKLFPNANWYERETWDLFGITFDGHPNLRRIMMPQTWKGHPLRKDYPARATEFSPFELTKAKQDLEMEALTFKPEEWGMKRGTENEDFMFLNLGPNHPSAHGAFRIVLQLDGEEIVDCVPDIGYHHRGAEKMGERQSWHSYIPYTDRIEYLGGCVNEMPYVLAVEKLAGITVPDRVNVIRVMLSELFRINSHLLYISTFIQDVGAMTPVFFAFTDRQKIYDLVEAITGFRMHPAWFRIGGVAHDLPRGWDRLLREFLDWMPKRLASYEKAALQNTILKGRSQGVAAYGAKEALEWGTTGAGLRATGIDFDVRKARPYSGYENFDFEIPVGGGVSDCYTRVMLKVEELRQSLRILEQCLNNMPEGPFKADHPLTTPPPKERTLQHIETLITHFLQVSWGPVMPANESFQMIEATKGINSYYLTSDGSTMSYRTRVRTPSFAHLQQIPAAIRGSLVSDLIVYLGSIDFVMSDVDR | 6.01 ± 0.11 | 7.18 ± 1.1 | 5.883 ± 0.042 | 6.39 ± 0.17 | 6.2 ± 0.22 | 3.32 ± 0.17 | 6.15 ± 0.1 | 11.43 ± 0.014 | 6.33 ± 0.14 | 12.22 ± 0.12 | 6.224 ± 0.032 | 11.84 ± 0.096
MTDMNILDLFLKASLLVKLIMLILIGFSIASWAIIIQRTRILNAAAREAEAFEDKFWSGIELSRLYQESQGKRDNLTGSEQIFYSGFKEFVRLHRANSHAPEAVVEGASRAMRISMNRELENLETHIPFLGTVGSISPYIGLFGTVWGIMHAFIALGAVKQATLQMVAPGIAEALIATAIGLFAAIPAVMAYNRLNQRVNKLELNYDNFMEEFTAILHRQAFTVSESNKG [P0ABU9] | 5.8 ± 0.98 | 6.17 ± 0.19 | 7.1 ± 0.95 | 6.83 ± 1.3 | 6.07 ± 0.051 | 3.13 ± 0.22 | 6.078 ± 0.021 | 11.9 ± 1.4 | 5.74 ± 0.16 | 11.6 ± 1.6 | 5.93 ± 0.14 | 12.7 ± 0.76
MTDNPNKKTFWDKVHLDPTMLLILLALLVYSALVIWSASGQDIGMMERKIGQIAMGLVIMVVMAQIPPRVYEGWAPYLYIICIILLVAVDAFGAISKGAQRWLDLGIVRFQPSEIAKIAVPLMVARFINRDVCPPSLKNTGIALVLIFMPTLLVAAQPDLGTSILVALSGLFVLFLSGLSWRLIGVAVVLVAAFIPILWFFLMHDYQRQRVMMLLDPESDPLGAGYHIIQSKIAIGSGGLRGKGWLHGTQSQLEFLPERHTDFIFAVLAEELGLVGILILLALYILLIMRGLWIAARAQTTFGRVMAGGLMLILFVYVFVNIGMVSGILPVVGVPLPLVSYGGSALIVLMAGFGIVMSIHTHRKMLSKSV [P0ABG7] | 6.32 ± 0.84 | 6.24 ± 0.34 | 5.73 ± 0.093 | 5.59 ± 0.48 | 5.99 ± 0.59 |  | 5.94 ± 0.34 |  | 6.47 ± 0.14 | 11.5 ± 1.2 | 5.99 ± 0.21 | 11.9 ± 0.4
MTDNTRLRIAMQKSGRLSDDSRELLARCGIKINLHTQRLIAMAENMPIDILRVRDDDIPGLVMDGVVDLGIIGENVLEEELLNRRAQGEDPRYFTLRRLDFGGCRLSLATPVDEAWDGPLSLNGKRIATSYPHLLKRYLDQKGISFKSCLLNGSVEVAPRAGLADAICDLVSTGATLEANGLREVEVIYRSKACLIQRDGEMEESKQQLIDKLLTRIQGVIQARESKYIMMHAPTERLDEVIALLPGAERPTILPLAGDQQRVAMHMVSSETLFWETMEKLKALGASSILVLPIEKMME | 3.9 ± 1 | 2.97 ± 0.12 | 3.093 ± 0.014 | 5.11 ± 1.9 | 3.38 ± 0.042 | 2.99 ± 0.52 | 4.94 ± 0.53 | 7.58 ± 0.31 | 3.29 ± 0.1 | 4.73 ± 0.14 | 5.32 ± 0.63 | 11.2 ± 0.66
MTDNTYQPAKVWTWDKSAGGAFANINRPVSGPTHEKTLPVGKHPLQLYSLGTPNGQKVTIMLEELLALGVTGAEYDAWLIRIGDGDQFSSGFVEVNPNSKIPALRDHTHNPPIRVFESGSILLYLAEKFGYFLPQDLAKRTETMNWLFWLQGAAPFLGGGFGHFYHYAPVKIEYAINRFTMEAKRLLDVLDKQLAQHKFVAGDEYTIADMAIWPWFGNVVLGGVYDAAEFLDAGSYKHVQRWAKEVGERPAVKRGRIVNRTNGPLNEQLHERHDASDFETNTEDKRQG | 5.11 ± 0.38 | 5.1 ± 0.095 | 4.77 ± 0.093 | 5.02 ± 0.099 | 4.78 ± 0.57 | 3.18 ± 0.21 | 5.63 ± 0.16 | 9.78 ± 2.2 | 5.31 ± 0.2 | 9.72 ± 3.6 | 5.6 ± 0.21 | 11.8 ± 0.8
